Common to all, as to test: Kinase Profiling Assay
Type in all cases: biochemical
Conditions in all cases: 100 μM peptide

The target of one assay is T1, Rse(h) (Homo sapiens, UniProt Q06418).
T1 construct: purchased Millipore (IC50 Profiler Express service)
T1 sequence (Q06418 41-890): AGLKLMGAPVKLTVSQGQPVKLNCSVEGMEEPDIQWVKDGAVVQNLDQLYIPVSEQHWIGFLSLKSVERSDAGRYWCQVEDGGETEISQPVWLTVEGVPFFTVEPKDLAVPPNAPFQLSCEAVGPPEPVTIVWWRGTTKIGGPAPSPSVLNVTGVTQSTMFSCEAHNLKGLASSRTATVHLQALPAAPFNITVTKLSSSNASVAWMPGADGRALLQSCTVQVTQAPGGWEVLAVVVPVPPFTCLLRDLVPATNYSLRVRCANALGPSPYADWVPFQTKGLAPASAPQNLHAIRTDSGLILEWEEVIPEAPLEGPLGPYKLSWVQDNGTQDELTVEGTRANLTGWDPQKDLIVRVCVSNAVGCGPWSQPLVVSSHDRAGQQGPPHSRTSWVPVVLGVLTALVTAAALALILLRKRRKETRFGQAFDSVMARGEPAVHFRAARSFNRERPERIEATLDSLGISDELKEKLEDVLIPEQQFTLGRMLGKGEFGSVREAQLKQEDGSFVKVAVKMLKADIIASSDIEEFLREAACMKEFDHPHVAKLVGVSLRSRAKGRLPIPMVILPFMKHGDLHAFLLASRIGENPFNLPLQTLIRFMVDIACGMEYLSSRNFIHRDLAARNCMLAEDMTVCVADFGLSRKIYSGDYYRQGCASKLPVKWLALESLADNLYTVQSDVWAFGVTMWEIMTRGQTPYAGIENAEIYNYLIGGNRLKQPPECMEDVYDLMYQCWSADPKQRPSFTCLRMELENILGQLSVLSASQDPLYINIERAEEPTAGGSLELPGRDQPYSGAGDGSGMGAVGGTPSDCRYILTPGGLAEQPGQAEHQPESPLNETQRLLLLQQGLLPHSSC
A digest of the protocol: (§1)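 Selectivity profiling: MK2-targeting peptides tested on 266 human kinases. All activity determinations done in duplicate.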

The target in another assay is cKit(h) (Homo sapiens, UniProt P10721). An outline of the steps:
as §1

In a further assay the target is T2, PrKX(h) (Homo sapiens, UniProt P51817).
T2 construct: purchased Millipore (IC50 Profiler Express service)
T2 sequence (P51817 1-358): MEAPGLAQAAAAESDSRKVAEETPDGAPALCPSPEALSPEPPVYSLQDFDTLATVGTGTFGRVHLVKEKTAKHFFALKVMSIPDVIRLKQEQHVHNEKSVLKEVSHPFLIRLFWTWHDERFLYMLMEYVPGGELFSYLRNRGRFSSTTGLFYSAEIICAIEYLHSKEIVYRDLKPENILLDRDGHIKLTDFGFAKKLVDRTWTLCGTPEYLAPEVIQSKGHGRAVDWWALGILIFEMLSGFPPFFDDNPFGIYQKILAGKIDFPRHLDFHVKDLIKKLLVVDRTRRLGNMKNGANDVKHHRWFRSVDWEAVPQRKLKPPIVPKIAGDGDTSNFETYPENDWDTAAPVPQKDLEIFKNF
A digest of the protocol:
as §1

Another assay concerns the target Yes(h) (Homo sapiens, UniProt P07947). A digest of the protocol: as §1
A further assay concerns the target T3, IRR(h) (Homo sapiens, UniProt P14616).
T3 construct: purchased Millipore
A digest of the protocol:
as §1

For the next assay, the target named is T4, Itk(h) (Homo sapiens, UniProt Q08881).
T4 construct: purchased Millipore
T4 sequence (Q08881 1-620): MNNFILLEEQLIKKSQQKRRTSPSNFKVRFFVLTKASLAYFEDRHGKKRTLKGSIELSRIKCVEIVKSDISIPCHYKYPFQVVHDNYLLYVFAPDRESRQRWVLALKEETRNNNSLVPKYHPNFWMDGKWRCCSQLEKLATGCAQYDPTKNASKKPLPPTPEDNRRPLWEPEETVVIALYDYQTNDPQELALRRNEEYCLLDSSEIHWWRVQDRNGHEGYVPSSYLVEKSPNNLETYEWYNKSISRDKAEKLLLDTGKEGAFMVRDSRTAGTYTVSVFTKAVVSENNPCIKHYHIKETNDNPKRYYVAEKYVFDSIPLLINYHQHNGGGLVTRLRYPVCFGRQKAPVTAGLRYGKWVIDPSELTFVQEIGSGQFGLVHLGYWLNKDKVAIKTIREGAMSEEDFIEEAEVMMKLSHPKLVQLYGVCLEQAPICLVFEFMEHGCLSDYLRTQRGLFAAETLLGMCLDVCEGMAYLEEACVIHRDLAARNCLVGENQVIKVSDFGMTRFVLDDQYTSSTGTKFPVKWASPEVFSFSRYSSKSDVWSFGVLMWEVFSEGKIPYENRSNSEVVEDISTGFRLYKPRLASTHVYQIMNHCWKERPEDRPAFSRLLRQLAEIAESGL
A digest of the protocol:
as §1

Another assay deals with F1t3(h) (Homo sapiens, UniProt P36888). An outline of the steps:
as §1

A further assay concerns the target Lck(h) activated (Homo sapiens, UniProt P06239). A digest of the protocol:
as §1

The target in the next assay is Axl(h) (Homo sapiens, UniProt P30530). An outline of the steps: as §1
Another assay addresses T5, IR(h) (Homo sapiens, UniProt P06213).
T5 construct: purchased Millipore
A digest of the protocol:
as §1

For the next assay, the target named is T6, Ron(h) (Homo sapiens, UniProt Q04912).
T6 construct: purchased Millipore (IC50 Profiler Express service)
An outline of the steps:
as §1

A further assay has as its target PAK4(h) (Homo sapiens, UniProt O96013). An outline of the steps: as §1
Another assay addresses Fms(Y969C)(h) (Homo sapiens, UniProt P07333, Y969C). A digest of the protocol:
as §1

The next assay concerns the target CDK5/p25(h) (Homo sapiens, UniProt Q00535). A digest of the protocol:
as §1

Yes(h), sequence (P07947 whole entry): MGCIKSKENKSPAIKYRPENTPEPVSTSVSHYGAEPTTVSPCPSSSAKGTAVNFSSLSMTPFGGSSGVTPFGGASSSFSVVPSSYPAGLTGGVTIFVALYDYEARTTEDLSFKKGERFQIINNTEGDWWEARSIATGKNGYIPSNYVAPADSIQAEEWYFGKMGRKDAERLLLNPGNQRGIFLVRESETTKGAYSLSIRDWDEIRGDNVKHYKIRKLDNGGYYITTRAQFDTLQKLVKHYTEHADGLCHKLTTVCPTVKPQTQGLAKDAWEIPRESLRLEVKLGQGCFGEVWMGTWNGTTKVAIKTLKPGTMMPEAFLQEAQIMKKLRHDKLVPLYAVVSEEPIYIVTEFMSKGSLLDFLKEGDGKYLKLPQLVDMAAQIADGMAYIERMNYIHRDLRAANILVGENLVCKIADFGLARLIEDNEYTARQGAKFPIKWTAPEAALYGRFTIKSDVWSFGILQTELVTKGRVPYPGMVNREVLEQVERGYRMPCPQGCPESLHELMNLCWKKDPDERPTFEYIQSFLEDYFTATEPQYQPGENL
CDK5/p25(h), sequence (Q00535 whole entry): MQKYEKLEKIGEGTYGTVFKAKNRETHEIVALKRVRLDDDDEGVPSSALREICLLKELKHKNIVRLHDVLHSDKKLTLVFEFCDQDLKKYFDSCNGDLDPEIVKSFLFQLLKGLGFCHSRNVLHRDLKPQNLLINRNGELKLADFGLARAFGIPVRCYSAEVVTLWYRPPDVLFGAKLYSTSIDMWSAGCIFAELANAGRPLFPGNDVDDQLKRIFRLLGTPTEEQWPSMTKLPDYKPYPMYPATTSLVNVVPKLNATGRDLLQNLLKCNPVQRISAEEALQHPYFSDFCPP
CDK5/p25(h), sequence (Q15078 99-307 partner limits assumed): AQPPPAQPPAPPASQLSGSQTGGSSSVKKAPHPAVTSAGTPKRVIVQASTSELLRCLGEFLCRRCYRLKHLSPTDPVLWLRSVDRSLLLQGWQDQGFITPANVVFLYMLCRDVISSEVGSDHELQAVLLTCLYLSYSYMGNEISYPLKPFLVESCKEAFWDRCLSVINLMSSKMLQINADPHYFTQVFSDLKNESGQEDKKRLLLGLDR
T3 sequence (P14616 27-1297): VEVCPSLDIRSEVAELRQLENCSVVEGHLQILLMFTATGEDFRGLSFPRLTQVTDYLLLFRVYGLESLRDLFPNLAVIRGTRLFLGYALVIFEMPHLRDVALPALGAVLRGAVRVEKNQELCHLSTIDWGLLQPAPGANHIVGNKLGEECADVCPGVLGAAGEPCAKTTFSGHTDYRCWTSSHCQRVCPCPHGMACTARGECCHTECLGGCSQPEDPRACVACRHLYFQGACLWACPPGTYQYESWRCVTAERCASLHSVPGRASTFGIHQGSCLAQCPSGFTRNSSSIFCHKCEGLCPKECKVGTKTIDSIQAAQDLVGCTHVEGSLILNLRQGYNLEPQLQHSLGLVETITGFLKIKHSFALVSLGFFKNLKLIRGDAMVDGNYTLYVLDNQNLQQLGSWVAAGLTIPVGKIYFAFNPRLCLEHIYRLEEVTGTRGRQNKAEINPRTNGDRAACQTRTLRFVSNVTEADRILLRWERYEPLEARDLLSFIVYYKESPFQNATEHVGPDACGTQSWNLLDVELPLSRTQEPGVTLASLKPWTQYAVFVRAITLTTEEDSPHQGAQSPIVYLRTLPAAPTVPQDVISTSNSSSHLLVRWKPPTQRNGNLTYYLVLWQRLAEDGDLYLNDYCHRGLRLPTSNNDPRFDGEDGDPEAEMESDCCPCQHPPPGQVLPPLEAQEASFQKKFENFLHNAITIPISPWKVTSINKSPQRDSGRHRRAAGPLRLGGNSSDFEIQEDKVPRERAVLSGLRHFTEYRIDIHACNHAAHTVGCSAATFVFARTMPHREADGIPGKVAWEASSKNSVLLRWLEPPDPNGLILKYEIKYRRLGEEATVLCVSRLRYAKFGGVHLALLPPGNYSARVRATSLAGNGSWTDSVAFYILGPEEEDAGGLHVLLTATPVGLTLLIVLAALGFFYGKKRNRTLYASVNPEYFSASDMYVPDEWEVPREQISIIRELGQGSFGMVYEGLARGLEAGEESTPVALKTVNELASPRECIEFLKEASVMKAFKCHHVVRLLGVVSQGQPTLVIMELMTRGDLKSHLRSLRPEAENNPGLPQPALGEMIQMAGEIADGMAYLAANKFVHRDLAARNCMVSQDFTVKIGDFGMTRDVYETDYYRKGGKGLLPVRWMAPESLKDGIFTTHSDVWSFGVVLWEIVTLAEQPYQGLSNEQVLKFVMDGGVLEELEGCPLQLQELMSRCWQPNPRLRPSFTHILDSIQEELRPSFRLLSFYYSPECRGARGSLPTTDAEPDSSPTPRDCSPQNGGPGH
PAK4(h), sequence (O96013 whole entry): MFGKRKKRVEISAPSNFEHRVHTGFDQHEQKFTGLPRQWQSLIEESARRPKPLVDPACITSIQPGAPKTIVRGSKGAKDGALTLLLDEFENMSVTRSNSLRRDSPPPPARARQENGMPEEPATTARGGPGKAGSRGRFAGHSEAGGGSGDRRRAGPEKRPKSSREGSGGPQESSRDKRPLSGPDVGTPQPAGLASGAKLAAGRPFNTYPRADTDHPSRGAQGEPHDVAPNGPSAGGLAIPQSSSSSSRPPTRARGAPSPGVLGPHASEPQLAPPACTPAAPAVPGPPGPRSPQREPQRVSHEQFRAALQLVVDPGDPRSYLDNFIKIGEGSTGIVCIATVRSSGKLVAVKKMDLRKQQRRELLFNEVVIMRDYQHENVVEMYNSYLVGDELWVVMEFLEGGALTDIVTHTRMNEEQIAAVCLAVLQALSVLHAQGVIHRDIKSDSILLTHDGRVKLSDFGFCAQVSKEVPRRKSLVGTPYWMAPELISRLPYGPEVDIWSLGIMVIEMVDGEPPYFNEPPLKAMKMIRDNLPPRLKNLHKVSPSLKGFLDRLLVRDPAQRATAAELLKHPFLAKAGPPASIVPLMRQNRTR
Lck(h) activated, sequence (P06239 whole entry): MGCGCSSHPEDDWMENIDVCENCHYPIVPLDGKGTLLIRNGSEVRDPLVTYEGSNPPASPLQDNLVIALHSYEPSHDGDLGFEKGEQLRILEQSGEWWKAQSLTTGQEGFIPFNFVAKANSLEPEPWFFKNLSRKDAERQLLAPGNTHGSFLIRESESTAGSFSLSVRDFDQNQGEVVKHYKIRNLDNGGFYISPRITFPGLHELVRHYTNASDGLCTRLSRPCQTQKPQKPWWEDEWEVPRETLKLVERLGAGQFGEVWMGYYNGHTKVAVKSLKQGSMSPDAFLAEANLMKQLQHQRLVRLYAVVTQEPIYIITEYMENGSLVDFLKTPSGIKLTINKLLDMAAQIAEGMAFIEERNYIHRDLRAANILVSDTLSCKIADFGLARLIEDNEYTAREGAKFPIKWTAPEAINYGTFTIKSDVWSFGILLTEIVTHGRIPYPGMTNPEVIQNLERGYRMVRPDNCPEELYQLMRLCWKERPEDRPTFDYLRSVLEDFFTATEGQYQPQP

As for FAKLAARLYRKALARQLGVAA [MMI-0300], the “Rse(h) % activity” value in the assay with Rse(h) is listed as 88%. The “cKit(h) % activity” value with cKit(h) was found to be 53%. For the same sequence, the “PrKX(h) % activity” value in the assay with PrKX(h) amounted to 61%. In addition, in the assay with Yes(h), the “Yes(h) % activity” value is 67%. Further, the “IRR(h) % activity” value in the assay with IRR(h) stood at 8%. In addition, the “Itk(h) % activity” value with Itk(h) turned out to be 77%. Moreover, in the assay with F1t3(h), the “F1t3(h) % activity” value is given as 84%. The “Lck(h) activated % activity” value with Lck(h) activated amounted to 243%. Moreover, the “Axl(h) % activity” value with Axl(h) is 52%. Further, the “IR(h) % activity” value with IR(h) was found to be 96%. The “Ron(h) % activity” value in the assay with Ron(h) was 93%. In the assay with PAK4(h), the “PAK4(h) % activity” value turned out to be 94%. Further, the “Fms(Y969C)(h) % activity” value in the assay with Fms(Y969C)(h) was 72%. For the same sequence, in the assay with CDK5/p25(h), the “CDK5/p25(h) % activity” value is 89%.

In the case of KAFAKLAARLYRKALARQLGVAA [MMI-0400], in the assay with Rse(h), the “Rse(h) % activity” value is recorded as 89%. Besides, in the assay with cKit(h), the “cKit(h) % activity” value amounted to 43%. Moreover, the “PrKX(h) % activity” value in the assay with PrKX(h) worked out at 76%. Moreover, the “Yes(h) % activity” value in the assay with Yes(h) came out at 14%. The “IRR(h) % activity” value with IRR(h) was found to be 8%. For the same sequence, the “Itk(h) % activity” value in the assay with Itk(h) is recorded as 63%. The “F1t3(h) % activity” value with F1t3(h) is listed as 18%. Also, the “Lck(h) activated % activity” value in the assay with Lck(h) activated was determined as 216%. Besides, in the assay with Axl(h), the “Axl(h) % activity” value stood at 41%. Further, in the assay with IR(h), the “IR(h) % activity” value was 85%. Besides, the “Ron(h) % activity” value in the assay with Ron(h) was found to be 79%. Besides, the “PAK4(h) % activity” value with PAK4(h) is 89%. Also, the “Fms(Y969C)(h) % activity” value with Fms(Y969C)(h) turned out to be 91%. Besides, in the assay with CDK5/p25(h), the “CDK5/p25(h) % activity” value stood at 92%.

Turning to “HRRIKAWLKKIKALARQLGVAA (Mammalian) [MMI-0500]”, the “Rse(h) % activity” value with Rse(h) turned out to be 63%. In addition, in the assay with cKit(h), the “cKit(h) % activity” value amounted to 45%. Also, the “PrKX(h) % activity” value in the assay with PrKX(h) turned out to be 57%. For the same sequence, in the assay with IRR(h), the “IRR(h) % activity” value was found to be 10%. For the same sequence, the “Itk(h) % activity” value with Itk(h) is 7%. Also, the “F1t3(h) % activity” value in the assay with F1t3(h) worked out at 17%. Further, in the assay with Lck(h) activated, the “Lck(h) activated % activity” value came to 76%. Moreover, the “Axl(h) % activity” value in the assay with Axl(h) worked out at 12%. Moreover, in the assay with IR(h), the “IR(h) % activity” value was found to be 95%. Moreover, the “Ron(h) % activity” value in the assay with Ron(h) is reported as 46%. For the same sequence, in the assay with PAK4(h), the “PAK4(h) % activity” value came to 86%. Besides, the “CDK5/p25(h) % activity” value with CDK5/p25(h) turned out to be 66%.

For “YARAAARQARAKALNRQLGVA (Mammalian) [MMI-0200]”, the “Rse(h) % activity” value with Rse(h) turned out to be 88%. Moreover, the “cKit(h) % activity” value with cKit(h) is recorded as 110%. Besides, the “Yes(h) % activity” value with Yes(h) is 93%. In the assay with IRR(h), the “IRR(h) % activity” value worked out at 69%. Moreover, the “Itk(h) % activity” value in the assay with Itk(h) worked out at 98%. Also, the “F1t3(h) % activity” value with F1t3(h) is recorded as 99%. For the same sequence, the “Lck(h) activated % activity” value with Lck(h) activated was found to be 90%. Besides, in the assay with Axl(h), the “Axl(h) % activity” value is reported as 99%. Moreover, the “IR(h) % activity” value in the assay with IR(h) came to 90%. The “Ron(h) % activity” value with Ron(h) worked out at 120%. In addition, the “PAK4(h) % activity” value with PAK4(h) was 98%. Moreover, in the assay with Fms(Y969C)(h), the “Fms(Y969C)(h) % activity” value was 88%. The “CDK5/p25(h) % activity” value with CDK5/p25(h) is 97%.

(Values after US10562947B2, “Compositions and methods for preventing or treating diseases, conditions or processes characterized by aberrant fibroblast proliferation and extracellular matrix deposition” (MOERAE MATRIX, INC., priority 2011, dated 2020).)
